# Literature values in article PMC7553146.
# Experiments:
# His41 = His41 (UniProt position 3281, VYCPRHVICTA)
# Cys145 = Cys145 (UniProt position 3385, FLNGSCGSVGF)
substance,measurement,setting,value
"3C-like main protease (3CL Mpro, nsp5) (Severe acute respiratory syndrome coronavirus (SARS-CoV))",pKa,His41,6.3 ± 0.1
same,pKa,Cys145,8.0 ± 0.3
